B1: Ube2T (enzyme)
chain: MQRASRLKRELHMLATEPPPGITCWQDKDQMDDLRAQILGGANTPYEKGVFKLEVIIPERYPFEPPQIRFLTPIYHPNIDSAGRICLDVLKLPPKGAWRPSLNIATVLTSIQLLMSEPNPDDPLMADISSEFKYNKPAFLKNARQWTEKHARQKQKADEEEMLDNLPEAGDSRVHNSTQKRKASQLVGIEKKFHPDV
B4: Ube2T T23R+W25Q (enzyme)
chain: MQRASRLKRELHMLATEPPPGIRCQQDKDQMDDLRAQILGGANTPYEKGVFKLEVIIPERYPFEPPQIRFLTPIYHPNIDSAGRICLDVLKLPPKGAWRPSLNIATVLTSIQLLMSEPNPDDPLMADISSEFKYNKPAFLKNARQWTEKHARQKQKADEEEMLDNLPEAGDSRVHNSTQKRKASQLVGIEKKFHPDV
B6: Ube2T D32A+D33A+L92A (enzyme)
chain: MQRASRLKRELHMLATEPPPGITCWQDKDQMAALRAQILGGANTPYEKGVFKLEVIIPERYPFEPPQIRFLTPIYHPNIDSAGRICLDVLKAPPKGAWRPSLNIATVLTSIQLLMSEPNPDDPLMADISSEFKYNKPAFLKNARQWTEKHARQKQKADEEEMLDNLPEAGDSRVHNSTQKRKASQLVGIEKKFHPDV

In assay [1] the target is Xenopus laevis FANCD2 (xFANCD2) (Xenopus laevis). As to the kind of experiment: MST.
The target in assay [2] is T1, FANCL URD-RING fragment (FANCL^UR) (human, UniProt Q9NW38 109-375).
T1 sequence: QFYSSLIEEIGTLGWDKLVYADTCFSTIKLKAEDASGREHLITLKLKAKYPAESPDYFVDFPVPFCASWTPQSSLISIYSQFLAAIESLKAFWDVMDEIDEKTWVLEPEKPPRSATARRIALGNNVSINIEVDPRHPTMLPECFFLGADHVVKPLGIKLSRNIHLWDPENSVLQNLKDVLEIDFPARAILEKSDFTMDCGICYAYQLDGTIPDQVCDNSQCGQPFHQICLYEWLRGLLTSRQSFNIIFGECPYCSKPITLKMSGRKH
Kind of assay: ITC.

The target of the assay “Ube2T” is B1. Kind of assay: ITC.
The assay “Ube2T D32A+D33A+L92A” deals with B6. As to the kind of experiment: ITC.
The assay “Ube2T T23R+W25Q” deals with B4. Kind of assay: ITC.

The results in this text go back to paper PMC7035956 (Nature chemical biology, 2019).

In turn, “Ube2Tv3 in the Ube2T^1-152 background (E54R+P93G+P94G) (from UniProt Q9NPD8 1-152) (domain or fragment)” registered a Kd in assay [1] of 238000 nM.

As for “Ube2T^1-152 (from UniProt Q9NPD8 1-152) (domain or fragment)”, the equilibrium dissociation constant (Kd) in assay [1] came to 320000 nM.

B1 showed a Kd in assay [2] of around 119 nM.

B2: Ube2T K95A (enzyme)
chain: MQRASRLKRELHMLATEPPPGITCWQDKDQMDDLRAQILGGANTPYEKGVFKLEVIIPERYPFEPPQIRFLTPIYHPNIDSAGRICLDVLKLPPAGAWRPSLNIATVLTSIQLLMSEPNPDDPLMADISSEFKYNKPAFLKNARQWTEKHARQKQKADEEEMLDNLPEAGDSRVHNSTQKRKASQLVGIEKKFHPDV
On to B2, for which the binding result in assay [2] is “binds”.

B3: FANCL RING (FANCL^R) (domain or fragment)
chain: EIDFPARAILEKSDFTMDCGICYAYQLDGTIPDQVCDNSQCGQPFHQICLYEWLRGLLTSRQSFNIIFGECPYCSKPITLKMSGRKH
In the case of B3, the Kd with Ube2T, with Ube2T D32A+D33A+L92A and in the assay with Ube2T T23R+W25Q was around 253 nM throughout.

On to B4, for which binding in assay [2] was characterised by a dissociation constant (Kd) of 200 nM.

B5: Ube2T R84S (enzyme)
chain: MQRASRLKRELHMLATEPPPGITCWQDKDQMDDLRAQILGGANTPYEKGVFKLEVIIPERYPFEPPQIRFLTPIYHPNIDSAGSICLDVLKLPPKGAWRPSLNIATVLTSIQLLMSEPNPDDPLMADISSEFKYNKPAFLKNARQWTEKHARQKQKADEEEMLDNLPEAGDSRVHNSTQKRKASQLVGIEKKFHPDV
With B5, the binding result in assay [2] is “binds”.

As for B6, the Kd in assay [2] is around 119 nM.

B7: Ube2T K91A (enzyme)
chain: MQRASRLKRELHMLATEPPPGITCWQDKDQMDDLRAQILGGANTPYEKGVFKLEVIIPERYPFEPPQIRFLTPIYHPNIDSAGRICLDVLALPPKGAWRPSLNIATVLTSIQLLMSEPNPDDPLMADISSEFKYNKPAFLKNARQWTEKHARQKQKADEEEMLDNLPEAGDSRVHNSTQKRKASQLVGIEKKFHPDV
In the case of B7, the binding result in assay [2] is “binds”.

B8: Ube2T R84S+K91A+K95A (enzyme)
chain: MQRASRLKRELHMLATEPPPGITCWQDKDQMDDLRAQILGGANTPYEKGVFKLEVIIPERYPFEPPQIRFLTPIYHPNIDSAGSICLDVLALPPAGAWRPSLNIATVLTSIQLLMSEPNPDDPLMADISSEFKYNKPAFLKNARQWTEKHARQKQKADEEEMLDNLPEAGDSRVHNSTQKRKASQLVGIEKKFHPDV
Take B8: the binding result in assay [2] is “binds”.
